In patent US20120100561:

What was measured:
[1] = target: Myc-RhoC (N-terminal Myc epitope-tagged full-length human RhoC)
[2] = target: T1, phosphoinositide-dependent kinase-1 (PDK1), O15530
T1 chain: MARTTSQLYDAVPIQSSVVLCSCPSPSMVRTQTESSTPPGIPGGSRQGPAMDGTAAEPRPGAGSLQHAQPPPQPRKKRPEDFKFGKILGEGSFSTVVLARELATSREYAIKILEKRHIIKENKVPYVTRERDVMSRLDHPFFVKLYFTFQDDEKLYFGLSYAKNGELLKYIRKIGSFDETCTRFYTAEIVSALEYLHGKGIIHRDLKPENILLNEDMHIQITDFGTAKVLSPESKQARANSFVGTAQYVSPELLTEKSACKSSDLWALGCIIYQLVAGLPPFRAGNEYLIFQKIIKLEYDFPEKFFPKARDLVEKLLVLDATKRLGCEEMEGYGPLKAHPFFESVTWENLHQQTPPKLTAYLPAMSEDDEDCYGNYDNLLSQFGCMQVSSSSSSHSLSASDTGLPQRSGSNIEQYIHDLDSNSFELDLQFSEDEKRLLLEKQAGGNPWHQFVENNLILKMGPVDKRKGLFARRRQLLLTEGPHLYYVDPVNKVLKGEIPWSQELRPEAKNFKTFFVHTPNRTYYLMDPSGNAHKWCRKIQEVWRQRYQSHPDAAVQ

Chain of Myc-RhoC (N-terminal Myc epitope-tagged full-length human RhoC) (chain, as listed by the source): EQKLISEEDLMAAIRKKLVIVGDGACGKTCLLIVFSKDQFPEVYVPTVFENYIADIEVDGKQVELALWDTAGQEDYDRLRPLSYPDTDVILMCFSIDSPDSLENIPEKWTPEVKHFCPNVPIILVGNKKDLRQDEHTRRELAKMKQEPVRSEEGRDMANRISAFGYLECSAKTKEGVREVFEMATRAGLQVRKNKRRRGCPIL

B1: Flag-PKN3 wt (N-terminal Flag epitope-tagged full-length kinase active human PKN3) (protein)
chain: DYKDDDKMEEGAPRQPGPSQWPPEDEKEVIRRAIQKELKIKEGVENLRRVATDRRHLGHVQQLLRSSNRRLEQLHGELRELHARILLPGPGPGPAEPVASGPRPWAEQLRARHLEALRRQLHVELKVKQGAENMTHTCASGTPKERKLLAAAQQMLRDSQLKVALLRMKISSLEASGSPEPGPELLAEELQHRLHVEAAVAEGAKNVVKLLSSRRTQDRKALAEAQAQLQESSQKLDLLRLALEQLLEQLPPAHPLRSRVTRELRAAVPGYPQPSGTPVKPTALTGTLQVRLLGCEQLLTAVPGRSPAAALASSPSEGWLRTKAKHQRGRGELASEVLAVLKVDNRVVGQTGWGQVAEQSWDQTFVIPLERARELEIGVHWRDWRQLCGVAFLRLEDFLDNACHQLSLSLVPQGLLFAQVTFCDPVIERRPRLQRQERIFSKRRGQDFLRASQMNLGMAAWGRLVMNLLPPCSSPSTISPPKGCPRTPTTLREASDPATPSNFLPKKTPLGEEMTPPPKPPRLYLPQEPTSEETPRTKRPHMEPRTRRGPSPPASPTRKPPRLQDFRCLAVLGRGHFGKVLLVQFKGTGKYYAIKALKKQEVLSRDEIESLYCEKRILEAVGCTGHPFLLSLLACFQTSSHACFVTEFVPGGDLMMQIHEDVFPEPQARFYVACVVLGLQFLHEKKIIYRDLKLDNLLLDAQGFLKIADFGLCKEGIGFGDRTSTFCGTPEFLAPEVLTQEAYTRAVDWWGLGVLLYEMLVGECPFPGDTEEEVFDCIVNMDAPYPGFLSVQGLEFIQKLLQKCPEKRLGAGEQDAEEIKVQPFFRTTNWQALLARTIQPPFVPTLCGPADLRYFEGEFTGLPPALTPPAPHSLLTARQQAAFRDFDFVSERFLEP
Q: Which results are given for B1?
A: kinase activity of the anti-Flag immunoprecipitate toward the PKN3 substrate (GSK3α-derived fragment, SEQ ID NO:1), Western blot [1]: the kinase activity is greatest for the PPRC complex than either PKN3 alone, or PKN3 and RhoC combined; kinase activity of the anti-Flag immunoprecipitate toward the PKN3 substrate (GSK3α-derived fragment, SEQ ID NO:1), Western blot [2]: the kinase activity is greatest for the PPRC complex than either PKN3 alone, or PKN3 and RhoC combined
